{"source": "patent US20060104974A1", "key": {"[1]": {"target": "Hu-CD147IgG2 fusion protein (human)", "experiment": "BIAcore, surface Hu rCD147-IgG 791 RU"}, "[2]": {"target": "CD147 on cells (human) (UniProt P35613)", "sequence (P35613 other isoform, or with tags, fused parts or gaps limits assumed)": "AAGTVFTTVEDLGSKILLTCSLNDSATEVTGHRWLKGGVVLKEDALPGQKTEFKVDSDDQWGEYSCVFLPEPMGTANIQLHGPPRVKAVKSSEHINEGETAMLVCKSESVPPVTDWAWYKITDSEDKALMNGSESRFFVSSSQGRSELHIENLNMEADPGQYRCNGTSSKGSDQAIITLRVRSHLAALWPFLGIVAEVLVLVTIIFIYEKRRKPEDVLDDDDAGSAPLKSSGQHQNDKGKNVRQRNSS", "experiment": "two-colour FACS of activated lymphocytes, CBL against CD25"}}}
{"substance": "ABX-CBL antibody", "values": [{"measurement": "Ka", "setting": "[1]", "value": "1.39e+09", "unit": "M⁻¹"}, {"measurement": "Kd", "setting": "[1]", "value": 0.518, "unit": "nM"}, {"measurement": "koff", "setting": "[1]", "value": 0.000376, "unit": "s⁻¹"}, {"measurement": "kon", "setting": "[1]", "value": 725000, "unit": "M⁻¹ s⁻¹"}, {"measurement": "% of cells in quadrant CBL negative / CD25 negative", "setting": "[2]", "value": 29.6, "unit": "%"}, {"measurement": "% of cells in quadrant CBL negative / CD25 positive", "setting": "[2]", "value": 1.6, "unit": "%"}, {"measurement": "% of cells in quadrant CBL positive / CD25 negative", "setting": "[2]", "value": 18.9, "unit": "%"}, {"measurement": "% of cells in quadrant CBL positive / CD25 positive", "setting": "[2]", "value": 50, "unit": "%"}]}
